From publication PMC7584215, ““The structure of the Type III secretion system export gate with CdsO, an ATPase lever arm”” (PLoS Pathogens, 2020)

B1: CdsO residues 25-110 from Chlamydia pneumoniae (domain or fragment)
chain: KEKRRLLEIEQEKLREKEAERDKVKNHYMQKIQQLRDLLDEGTTSDAVLQIKSYIKVVAVQLSEEEEKVNKQKEVVLAASKELEKA
notes: CdsO (central stalk protein of the T3SS ATPase, SctO family), Chlamydia pneumoniae, residues 25-110 of the 168 residues of full-length CdsO; Cloned into pET28 as CdsV; Called monomeric in the ITC methods; also called CdsO_(25-110); central stalk protein
B2: CdsV C-terminal region (residues 345-710) from Chlamydia pneumoniae (domain or fragment)
chain: ASTTVGAAGDGAATVGDNPDDYSLTLPVILELGKDLSKLIQHKTKSGQSFVDDMIPKMRQALYQDIGIRYPGIHVRTDSPSLEGYDYMILLNEVPYVRGKIPPHHVLTNEVEDNLSRYNLPFITYKNAAGLPSAWVSEDAKAILEKAAIKYWTPLEVIILHLSYFFHKSSQEFLGIQEVRSMIEFMERSFPDLVKEVTRLIPLQKLTEIFKRLVQEQISIKDLRTILESLSEWAQTEKDTVLLTEYVRSSLKLYISFKFSQGQSAISVYLLDPEIEEMIRGAIKQTSAGSYLALDPDSVNLILKSMRNTITPTPAGGQPPVLLTAIDVRRYVRKLIETEFPDIAVISYQEILPEIRIQPLGRIQIF
notes: CdsV (export gate protein, SctV family), Chlamydia pneumoniae, residues 345-710, the cytoplasmic C-terminal region; Cloned into pET28 with the vector's N-terminal hexa-His tag and thrombin cleavage site; Homo-nonameric ring; also called WT CdsVc; soluble export gate; source: nonameric peak fractions pooled

What was measured:
[1] = target: B2; assay: ITC; monomeric CdsO_(25-110) (2.2 mM) titrated into nonameric CdsVc (15.0 uM) or nonameric CdsVc L638A/D639A (12.1 uM); 20°C; 10 mM HEPES pH 7.5, 500 mM NaCl; 24 x 2 uL injections; conditions: both partners purified
[2] = target: B2; assay: crystal structure; CdsVC mixed with ~10% molar excess of CdsO_(25-110); 100 mM Bis-Tris pH 6.0, 4% PEG 3350, 200 mM ammonium acetate; refined to 4.6 Å; conditions: both partners purified
[3] = target: the molecule itself; assay: crystal structure; CdsVC alone; hanging drop, 100 mM HEPES pH 6.75, 5% PEG-6000, 21°C; refined to 2.8 Å

Binder | Kd [1] | stoichiometry N [2] | stoichiometry N [3]
B1 | 28 ± 3 µM | 1 | 
B2 |  |  | 9
